Legend:
[1] = biological target: T1, mouse glutamate receptor A4 amino-terminal domain (mouse, UniProt Q9Z2W8 21-420); assay: SPR
T1 sequence (looked up): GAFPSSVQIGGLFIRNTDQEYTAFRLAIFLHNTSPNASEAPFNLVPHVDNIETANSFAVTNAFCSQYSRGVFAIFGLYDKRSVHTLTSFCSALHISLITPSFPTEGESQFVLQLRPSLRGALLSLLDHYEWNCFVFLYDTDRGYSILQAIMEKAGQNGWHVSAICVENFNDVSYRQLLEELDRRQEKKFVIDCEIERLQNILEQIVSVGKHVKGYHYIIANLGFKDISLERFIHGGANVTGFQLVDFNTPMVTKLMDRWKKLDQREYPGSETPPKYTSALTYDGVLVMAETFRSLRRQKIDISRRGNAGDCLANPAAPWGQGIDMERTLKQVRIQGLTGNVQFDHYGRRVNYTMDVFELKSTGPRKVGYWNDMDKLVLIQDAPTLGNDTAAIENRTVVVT

[2] = biological target: T2, human glutamate receptor D2 amino-terminal domain (human, UniProt O43424 24-440); assay: SPR
T2 sequence (looked up): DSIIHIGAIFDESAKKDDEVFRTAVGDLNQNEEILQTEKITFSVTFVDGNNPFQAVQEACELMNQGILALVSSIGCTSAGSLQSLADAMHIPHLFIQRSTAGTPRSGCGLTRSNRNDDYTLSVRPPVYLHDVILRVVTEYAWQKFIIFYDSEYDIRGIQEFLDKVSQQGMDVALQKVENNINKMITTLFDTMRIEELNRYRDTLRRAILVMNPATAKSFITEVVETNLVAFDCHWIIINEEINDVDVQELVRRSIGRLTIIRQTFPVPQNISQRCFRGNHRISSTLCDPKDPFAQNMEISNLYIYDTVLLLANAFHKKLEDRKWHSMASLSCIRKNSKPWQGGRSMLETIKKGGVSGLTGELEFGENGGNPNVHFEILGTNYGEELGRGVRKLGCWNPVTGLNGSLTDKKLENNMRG

B1: pentraxin domain of human neuronal pentraxin-1, biotinylated on a C-terminal Avitag (immobilised in SPR) (domain or fragment, UniProt Q15818 224-431, looked up)
chain: PGDKFQLTFPLRTNYMYAKVKKSLPEMYAFTVCMWLKSSATPGVGTPFSYAVPGQANELVLIEWGNNPMEILINDKVAKLPFVINDGKWHHICVTWTTRDGVWEAYQDGTQGGSGENLAPYHPIKPQGVLVLGQEQDTLGGGFDATQAFVGELAHFNIWDRKLTPGEVYNLATCSTKALSGNVIAWAESHIEIYGGATKWTFEACRQI
modifications: biotin on the Avitag (in vivo biotinylation by BirA)
[1]
  Kd: 11 ± 0.9 µM

B2: Cbln1, biotinylated on a C-terminal Avitag (immobilised in SPR) (natural protein, UniProt P23435 22-193, looked up)
chain: QNETEPIVLEGKCLVVCDSNPTSDPTGTALGISVRSGSAKVAFSAIRSTNHEPSEMSNRTMIIYFDQVLVNIGNNFDSERSTFIAPRKGIYSFNFHVVKVYNRQTIQVSLMLNGWPVISAFAGDQDVTREAASNGVLIQMEKGDRAYLKLERGNLMGGWKYSTFSGFLVFPL
modifications: biotin on the Avitag (in vivo biotinylation by BirA)
[2]
  Kd: > 100 µM

From article PMC7116145 (Science (New York, N.Y.), 2020)
